In patent US20220024979A1 (NANYANG TECHNOLOGICAL UNIVERSITY, published 2022):

Target: the molecule itself
Assay: solution 2D 1H-1H NOESY NMR, 20 mM peptide
Experimental: NMR: All solution state NMR experiments were carried out on a Bruker 700 MHz spectrometer equipped with a cryoprobe. NMR data were processed with TOPSPIN (Bruker), then analysed using Sparky (W. Lee et al. Bioinfo. 2015, 31, 1325) programs. 0.5 mM or 20 mM GV8 peptides were dissolved in water, pH 6.8 with 10% D₂O for deuterium lock and DSS for signal reference. Two dimensional (2D)¹H-¹H TOCSY and NOESY spectra were acquired with 80 ms and 200 ms mixing times, respectively. In order to monitor hydrogel formation, 1D ¹H spectrum and a series of 2D ¹H-¹H NOESY spectra were recorded every four hours for 20 hours using the 20 mM peptide solution. For H/D exchange experiments, 0.5 mM and 20 mM peptide samples were dissolved in 100% D₂O and 2D ¹H-¹H TOCSY spectra were recorded at 30 min intervals. The extrinsic exchange rates were obtained by fitting the peak intensity vs. time to a single-exponential decay equation. The protection factor were calculated as the ratio of intrinsic exchange rates (calculated from SPHERE (Bai et al. Proteins. 1993, 17, 75)) to the extrinsic exchange rates. […] Amide temperature coefficients were also determined by recording 1D ¹H spectra of 0.5 mM and 20 mM GV8 peptide at 298 K, 303 K, 308 K and 313 K. Amide proton chemical shift deviations were fitted linearly against temperature and the temperature coefficients were calculated as σδHN/ΔT (ppb K⁻¹).

B1: Ac-GLYGGYGV-NH2 (GV8) peptide (peptide)
peptide: Ac-GLYGGYGV-NH2
notes: Synthetic 8-residue peptide, a repeat derived from suckerin-19; It is entered only for its self-association (dimer or oligomer in solution at 20 mM, antiparallel beta-sheets in the hydrogel); For the ssNMR experiments the peptide was uniformly 13C-15N labelled
B1: binds.
